{"source": "patent US20070099268A1", "about": "“Chimeric HCN channels” (priority 2005, published 2007)", "molecules": {"B1": {"name": "HCN1: mouse HCN1 channel isoform (protein)", "chain": "MEGGGKPNSASNSRDDGNSVFPSKAPATGPVAADKRLGTPPGGGAAGKEHGNSVCFKVDGGGGEEPAGSFEDAEGPRRQYGFMQRQFTSMLQPGVNKFSLRMFGSQKAVEKEQERVKTAGFWIIHPYSDFRFYWDLIMLIMMVGNLVIIPVGITFFTEQTTTPWIIFNVASDTVFLLDLIMNFRTGTVNEDSSEIILDPKVIKMNYLKSWFVVDFISSIPVDYIFLIVEKGMDSEVYKTARALRIVRFTKILSLLRLLRLSRLIRYIHQWEEIFHMTYDLASAVVRIFNLIGMMLLLCHWDGCLQFLVPLLQDFPPDCWVSLNEMVNDSWGKQYSYALFKAMSHMLCIGYGAQAPVSMSDLWITMLSMIVGATCYAMFVGHATALIQSLDSSRRQYQEKYKQVEQYMSFHKLPADMRQKIHDYYEHRYQGKIFDEENILSELNDPLREEIVNFNCRKLVATMPLFANADPNFVTAMLSKLRFEVFQPGDYIIREGAVGKKMYFIQHGVAGVITKSSKEMKLTDGSYFGEICLLTKGRRTASVRADTYCRLYSLSVDNFNEVLEEYPMMRRAFETVAIDRLDRIGKKNSILLQKFQKDLNTGVFNNQENEILKQIVKHDREMVQAIPPINYPQMTALNCTSSTTTPTSRMRTQSPPVYTATSLSHSNLHSPSPSTQTPQPSAILSPCSYTTAVCSPPIQSPLATRTFHYASPTASQLSLMQQPQQQLPQSQVQQTQTQTQQQQQQQQQQQQQQQQQQQQQQQQQQQQQQQQQQQQQPQTPGSSTPKNEVHKSTQALHNTNLTKEVRPLSASQPSLPHEVSTLISRPHPTVGESLASIPQPVAAVHSTGLQAGSRSTVPQRVTLFRQMSSGAIPPNRGVPPAPPPPAAVQRESPSVLNTDPDAEKPRFASNL"}, "B2": {"name": "mE324A: mHCN2 with glutamate at position 324 mutated to alanine (protein, UniProt O88703 1-863, looked up, variant E324A)", "Potassium/sodium …": "MDARGGGGRPGDSPGTTPAPGPPPPPPPPAPPQPQPPPAPPPNPTTPSHPESADEPGPRARLCSRDSACTPGAAKGGANGECGRGEPQCSPEGPARGPKVSFSCRGAASGPSAAEEAGSEEAGPAGEPRGSQASFLQRQFGALLQPGVNKFSLRMFGSQKAVEREQERVKSAGAWIIHPYSDFRFYWDFTMLLFMVGNLIIIPVGITFFKDETTAPWIVFNVVSDTFFLMDLVLNFRTGIVIEDNTEIILDPEKIKKKYLRTWFVVDFVSSIPVDYIFLIVEKGIDSEVYKTARALRIVRFTKILSLLRLLRLSRLIRYIHQWAEIFHMTYDLASAVMRICNLISMMLLLCHWDGCLQFLVPMLQDFPSDCWVSINNMVNHSWSELYSFALFKAMSHMLCIGYGRQAPESMTDIWLTMLSMIVGATCYAMFIGHATALIQSLDSSRRQYQEKYKQVEQYMSFHKLPADFRQKIHDYYEHRYQGKMFDEDSILGELNGPLREEIVNFNCRKLVASMPLFANADPNFVTAMLTKLKFEVFQPGDYIIREGTIGKKMYFIQHGVVSVLTKGNKEMKLSDGSYFGEICLLTRGRRTASVRADTYCRLYSLSVDNFNEVLEEYPMMRRAFETVAIDRLDRIGKKNSILLHKVQHDLSSGVFNNQENAIIQEIVKYDREMVQQAELGQRVGLFPPPPPPQVTSAIATLQQAVAMSFCPQVARPLVGPLALGSPRLVRRAPPGPLPPAASPGPPAASPPAAPSSPRAPRTSPYGVPGSPATRVGPALPARRLSRASRPLSASQPSLPHGVPAPSPAASARPASSSTPRLGPAPTARTAAPSPDRRDSASPGAASGLDPLDSARSRLSSNL"}, "B3": {"name": "HCN4: mouse HCN4 channel isoform (protein, UniProt O70507 1-1201, looked up)", "Potassium/sodium …": "MDKLPPSMRKRLYSLPQQVGAKAWIMDEEEDGEEEGAGGRQDPSRRSIRLRPLPSPSPSVAAGCSESRGAALGATESEGPGRSAGKSSTNGDCRRFRGSLASLGSRGGGSGGAGGGSSLGHLHDSAEERRLIAAEGDASPGEDRTPPGLATEPERPATAAQPAASPPPQQPPQPASASCEQPSADTAIKVEGGAAASDQILPEAEVRLGQSGFMQRQFGAMLQPGVNKFSLRMFGSQKAVEREQERVKSAGFWIIHPYSDFRFYWDLTMLLLMVGNLIIIPVGITFFKDENTTPWIVFNVVSDTFFLIDLVLNFRTGIVVEDNTEIILDPQRIKMKYLKSWFVVDFISSIPVDYIFLIVETRIDSEVYKTARALRIVRFTKILSLLRLLRLSRLIRYIHQWEEIFHMTYDLASAVVRIVNLIGMMLLLCHWDGCLQFLVPMLQDFPHDCWVSINGMVNNSWGKQYSYALFKAMSHMLCIGYGRQAPVGMSDVWLTMLSMIVGATCYAMFIGHATALIQSLDSSRRQYQEKYKQVEQYMSFHKLPPDTRQRIHDYYEHRYQGKMFDEESILGELSEPLREEIINFNCRKLVASMPLFANADPNFVTSMLTKLRFEVFQPGDYIIREGTIGKKMYFIQHGVVSVLTKGNKETKLADGSYFGEICLLTRGRRTASVRADTYCRLYSLSVDNFNEVLEEYPMMRRAFETVALDRLDRIGKKNSILLHKVQHDLNSGVFNYQENEIIQQIVRHDREMAHCAHRVQAAASATPTPTPVIWTPLIQAPLQAAAATTSVAIALTHHPRLPAAIFRPPPGPGLGNLGAGQTPRHPRRLQSLIPSALGSASPASSPSQVDTPSSSSFHIQQLAGFSAPPGLSPLLPSSSSSPPPGACGSPPAPTPSTSTAAAASTTGFGHFHKALGGSLSSSDSPLLTPLQPGARSPQAAQPPPPLPGARGGLGLLEHFLPPPPSSRSPSSSPGQLGQPPGELSLGLAAGPSSTPETPPRPERPSFMAGASGGASPVAFTPRGGLSPPGHSPGPPRTFPSAPPRASGSHGSLLLPPASSPPPPQVPQRRGTPPLTPGRLTQDLKLISASQPALPQDGAQTLRRASPHSSGESVAAFSLYPRAGGGSGSSGGLGPPGRPYGAIPGQHVTLPRKTSSGSLPPPLSLFGARAASSGGPPLTTAAPQREPGARSEPVRSKLPSNL"}}, "key": {"AdHCN2 infected culture": {"test_system": "AdHCN2 infected culture", "test": "Modulation of spontaneous rate by drugs in an AdHCN2 infected culture", "format": "cell-based, rat", "conditions": "superfusion with drug; control record of same culture 48, 54 and 96 beats/min respectively"}, "[1]": {"test_system": "cell-free patches from Xenopus oocytes", "conditions": "binding of cAMP to the CNBD; cited from earlier work"}, "Xenopus oocytes": {"test_system": "Xenopus oocytes", "test": "Two-microelectrode voltage clamp of mHCN2 and mE324A expressed in Xenopus oocytes", "format": "cell-based, Xenopus laevis", "protocol": "Oocytes were prepared from mature female Xenopus laevis in accordance with an approved protocol as previously described (Yu et al., 2004).\nFor expression of HCN in Xenopus oocytes, oocytes were injected with 5 ng of cRNA made from mouse wild-type mHCN2 and mutant mHCN2 (E324A) plasmids. Injected oocytes were incubated at 18° C. for 24-48 h prior to electrophysiological analysis.\nFor measurements in Xenopus oocytes, oocytes were voltage-clamped using a two-microelectrode voltage clamp technique. The extracellular recording solution (OR2) contained (in mM): NaCl, 80; KCl, 2; MgCl2, 1; and Na-HEPES, 5 (pH 7.6). For the recording of steady state activation of expressed Wt mHCN2, currents were elicited by 2-s long hyperpolarizing pulses between −30 mV and −160 mV with 10 mV increments, followed by a 1-s depolarizing pulse to +15 mV. The holding potential was −30 mV. As to the mHCN2 (E324A), currents were elicited by 3-s-long hyperpolarizing pulses between +20 mV and −130 mV with 10 mV increments, followed by a 1 second depolarizing pulse to +50 mV. The holding potential was +20 mV. To construct the current/voltage relationship for wildtype (Wt) mHCN2, the cell was held at […], the current was elicited by a 2-s hyperpolarizing voltage step to −140 mV to saturate activation, and followed by 2-s depolarizing voltage steps between […] and +50 mV in 10 mV increments. For mHCN2 (E324A), the cell was held at +20 mV, current was elicited by a 1.5-s hyperpolarizing voltage step to −110 mV to saturate activation, and then followed by 1.5-s depolarizing voltage steps between −80 mV and +50 mV in 10 mV increments for the recording of tail currents. To record the current amplitudes for Wt mHCN2, the current was evoked by applying a 3-s hyperpolarizing voltage pulse to −120 mV from a holding potential of −30 mV. For mHCN2 (E324A), the current was evoked by applying a 3-s hyperpolarizing voltage pulse to −120 mV from a holding potential of +20 mV."}, "[2]": {"test_system": "neonatal rat ventricular myocytes", "test": "Voltage clamp of HCN2 or HCN4 plasmid (lipofectin) expressed in neonatal rat ventricular myocytes", "format": "cell-based", "excerpt": "cDNAs encoding mouse HCN2 (mHCN2, GenBank AJ225122) or HCN4 (mHCN4, GenBank deposit in progress) were subcloned into the pCI mammalian expression vector (Promega, Madison, Wis.). The resulting plasmids (pCI-mHCN2 or pCI-mHCN4) were used for neonatal rat ventricular myocyte transfection, as indicated. A separate plasmid (pEGFP-CI; Clontech, Palo Alto, Calif.) expressing the gene of enhanced green fluorescent protein (EGFP) as a visual marker for successful DNA transfer was included in all transfection experiments. For transfection, 2 μg of pCI-mHCN and […] of pEGFP-CI were first incubated in 200 μl of SFM containing 10 μl of lipofectin (Gibco Life Technologies, Rockville, Md.) at room temperature for 45 min. The mixture was then added to a 35-mm petri dish containing […] suspended in 0.8 ml of SFM. After overnight incubation at 37° C. in a CO2 incubator, the medium containing the plasmids and lipofectin was discarded and the dish was refilled with 2 ml of fresh SFM.\nThe whole-cell voltage clamp technique was employed to record native If or expressed IHCN2 or IHCN4. Action potentials were recorded in current clamp mode, again using a whole cell patch electrode. Experiments were carried out on cells superfused at 35° C. Extracellular solution contained (mM): NaCl, 140; NaOH, 2.3; MgCl2, 1; KCl, 5.4; CaCl2, 1.0; HEPES, 5; glucose, 10; pH 7.4. To record from myocytes expressing native currents (If), myocytes expressing HCN2 (IHCN2) or HCN4 (IHCN4), [K^+]0 was increased to 10 mM, and MnCl2 (2 mM) and BaCl2 (4 mM) added to the superfusate to eliminate calcium and inward rectifier (IK1) currents. In some experiments CsCl (4 mM) was used extracellularly to identify the pacemaker current as the Cs-sensitive current. The patch pipette solution included (mM): aspartic acid, 130; KOH, 146; NaCl, 10; CaCl2, 2; EGTA-KOH, 5; Mg-ATP, 2; HEPES-KOH, 10, pH 7.2. Where indicated, 10 μM cAMP was included in the pipette solution. A fast solution changing apparatus expedited the experimental protocols. The pipette resistance was typically 1-3 M. An Axopatch-200B amplifier and pClampS software (Axon Instruments) were used for acquisition and data analysis. […]\nThe activation relation of the native or expressed current can be determined from the steady-state I-V relation. In this case, the reversal potential (Vf) was separately determined from the fully activated I-V relation (Accili et al., 1991) and used to generate the activation relation (y=I/(gmax*(V−Vf)), where gmax is the maximal conductance). […] Tail currents were measured at a negative voltage (−125 mV) to avoid contamination by transient outward and other currents at less negative voltages. […]"}, "[3]": {"test_system": "mammalian expression systems", "conditions": "cited from earlier work"}}, "note": "Entries after “also recorded” stand apart in the source; their conditions may differ.", "data": [{"molecule": "C[N+](C)(C)CCOC(N)=O", "note": "[carbachol]", "values": [{"measurement": "spontaneous rate during drug exposure", "setting": "AdHCN2 infected culture", "value": 45, "unit": "beats/min"}]}, {"molecule": "CCN(c1ccccc1)c1cc(=NC)n(C)c(C)n1.Cl", "note": "[ZD-7288]", "values": [{"measurement": "spontaneous rate during drug exposure", "setting": "AdHCN2 infected culture", "value": 78, "unit": "beats/min"}]}, {"molecule": "B1", "values": [{"measurement": "shift of activation curve to more positive potentials by cAMP", "setting": "[1]", "value": 4, "unit": "mV"}]}, {"molecule": "B2", "values": [{"measurement": "activation threshold", "setting": "Xenopus oocytes", "value": "around −30 mV"}, {"measurement": "slope (s) with cAMP", "setting": "Xenopus oocytes; 8-Br-cAMP 1 mM", "value": 19.7, "unit": "mV"}, {"measurement": "Vh with cAMP", "setting": "Xenopus oocytes; 8-Br-cAMP 1 mM extracellular", "value": "−48.9", "unit": "mV"}, {"measurement": "effect of Cs+ on inward current", "setting": "Xenopus oocytes; Cs+ 5 mM", "value": "blocked; also recorded: large inhibition"}, {"measurement": "slope (s), control", "setting": "Xenopus oocytes; control", "value": 15.2, "unit": "mV"}, {"measurement": "reversal potential of IHCN2", "setting": "Xenopus oocytes; fully activated current/voltage relation", "value": "~−40", "unit": "mV"}, {"measurement": "half maximal activation (Vh), control", "setting": "Xenopus oocytes; oocytes, control", "value": "−57.3", "unit": "mV"}, {"measurement": "induced current", "setting": "Xenopus oocytes; single voltage pulse to −120 mV", "value": "579.8±18.2", "unit": "nA"}]}, {"molecule": "B3", "values": [{"measurement": "activation kinetics compared to HCN2", "setting": "[2]; for most voltages", "value": "markedly slower"}, {"measurement": "slope factor (K)", "setting": "[2]; lipofectin transfection", "value": "6.7±0.7", "unit": "mV"}, {"measurement": "midpoint of activation reported in other mammalian expression studies", "setting": "[3]", "value": "−80 to −109", "unit": "mV"}]}]}
